Reference: patent US20170137467A1 (CHROMOTEK, published 2017)
Where a chain is given by its changes, count along the chain named. Blank lines part the entries; values can stand above or below the binder they belong to.

Legend:
BC2T P1M = molecular target: T1, BC2T P1M (human); experiment: library pulldown, LC-MS of supernatant; ratio vs GFP-Nb control (0=captured, 1=not captured)
T1 construct: position 1 library, row M
T1 peptide: Ac-MDRKAAVSHWQQ-NH2
Source text: (§1) In total, 12 different BC2T libraries displaying all 20 proteinogenic amino acids in one single position of the peptide were used in immunoprecipitation experiments. […] The direct comparison with the GFP-Nb made it possible to determine the quantitative degree of peptide capture without the need of labeled standards. […] The more peptide was captured the more the value approximates 0. It was not possible to discriminate between isoleucine (I) and leucine (L) peptide versions since these peptides are isobaric.
(§2) To investigate the binding specificity of the BC2T and derived mutants peptide libraries for each amino acid position of the sequence […] (SEQ ID NO:4) were synthesized with acetyl and amide groups located at the N-termini or C-termini respectively (Intavis). […] Incubations were performed in 300 μl PBS/0.01% CHAPS for 1 h on a HulaMixer (Life Technologies). Subsequent to a centrifugation step 10 μl supernatant were analyzed in a LC-MS procedure. Peptides were separated using an UltiMate3000 RSLCnano System (Thermo Scientific), composed of a C18 PepMap100μ-Precolumn (300 μm×5 mm; particle size: 5 μm; pore size: 100 Å—Thermo Scientific) and a C18 analytical column (Acclaim Rapid Separation LC (RSLC) Column: 150 mm×5 mm; particle size: 2.2 μm; pore size: 100 Å—Thermo Scientific). A step gradient was applied starting at 8% and ending after 20 min at 30% eluent B (80% acetonitrile, 20% H₂O, 0.1% formic acid).

BC2T R3V = molecular target: T2, BC2T R3V (human); experiment: as above
T2 construct: position 3 library (BC2TR3X), row V
T2 peptide: Ac-PDVKAAVSHWQQ-NH2
Source text: as §1, §2

BC2T A6G = molecular target: T3, BC2T A6G (human); experiment: as above
T3 construct: position 6 library (BC2TA6X), row G
T3 peptide: Ac-PDRKAGVSHWQQ-NH2
Source text: as §1, §2

BC2T A5G = molecular target: T4, BC2T A5G (human); experiment: as above
T4 construct: position 5 library, row G
T4 peptide: Ac-PDRKGAVSHWQQ-NH2
Source text: as §1, §2

BC2T V7(I/L2) = molecular target: T5, BC2T V7(I/L2); experiment: as above
T5 construct: position 7 library, row I/L2
Source text: as §1, §2

BC2T P1A = molecular target: T6, BC2T P1A (human); experiment: as above
T6 construct: position 1 library, row A
T6 peptide: Ac-ADRKAAVSHWQQ-NH2
Source text: as §1, §2

BC2T K4(I/L2) = molecular target: T7, BC2T K4(I/L2); experiment: as above
T7 construct: position 4 library, row I/L2
Source text: as §1, §2

BC2T D2M = molecular target: T8, BC2T D2M (human); experiment: as above
T8 construct: position 2 library, row M
T8 peptide: Ac-PMRKAAVSHWQQ-NH2
Source text: as §1, §2

BC2T R3(I/L1) = molecular target: T9, BC2T R3(I/L1); experiment: as above
T9 construct: position 3 library (BC2TR3X), row I/L1
Source text: as §1, §2

BC2T V7A = molecular target: T10, BC2T V7A (human); experiment: as above
T10 construct: position 7 library, row A
T10 peptide: Ac-PDRKAAASHWQQ-NH2
Source text: as §1, §2

BC2T R3A = molecular target: T11, BC2T R3A (human); experiment: as above
T11 construct: position 3 library (BC2TR3X), row A
T11 peptide: Ac-PDAKAAVSHWQQ-NH2
Source text: as §1, §2

BC2T R3M = molecular target: T12, BC2T R3M (human); experiment: as above
T12 construct: position 3 library (BC2TR3X), row M
T12 peptide: Ac-PDMKAAVSHWQQ-NH2
Source text: as §1, §2

BC2T P1G = molecular target: T13, BC2T P1G (human); experiment: as above
T13 construct: position 1 library, row G
T13 peptide: Ac-GDRKAAVSHWQQ-NH2
Source text: as §1, §2

BC2T V7M = molecular target: T14, BC2T V7M (human); experiment: as above
T14 construct: position 7 library, row M
T14 peptide: Ac-PDRKAAMSHWQQ-NH2
Source text: as §1, §2

BC2T A5M = molecular target: T15, BC2T A5M (human); experiment: as above
T15 construct: position 5 library, row M
T15 peptide: Ac-PDRKMAVSHWQQ-NH2
Source text: as §1, §2

BC2T A6V = molecular target: T16, BC2T A6V (human); experiment: as above
T16 construct: position 6 library (BC2TA6X), row V
T16 peptide: Ac-PDRKAVVSHWQQ-NH2
Source text: as §1, §2

BC2T Q11T = molecular target: T17, BC2T Q11T; experiment: positional peptide library pulldown on immobilised Nb, LC-MS of supernatant; signal ratio to control GFP-Nb (1 = not captured, near 0 = captured)
T17 construct: positional scanning library member
T17 peptide: Ac-PDRKAAVSHWTQ-NH2
Source text: as §1, §2

BC2T Q11(I/L1) = molecular target: T18, BC2T Q11(I/L1) (N-terminal acetyl; C-terminal amide); experiment: as above
T18 construct: positional scanning library member; I or L not resolved
Source text: as §1, §2

BC2T Q12T = molecular target: T19, BC2T Q12T; experiment: as above
T19 construct: positional scanning library member
T19 peptide: Ac-PDRKAAVSHWQT-NH2
Source text: as §1, §2

BC2T Q12F = molecular target: T20, BC2T Q12F; experiment: as above
T20 construct: positional scanning library member
T20 peptide: Ac-PDRKAAVSHWQF-NH2
Source text: as §1, §2

BC2T H9Q = molecular target: T21, BC2T H9Q; experiment: as above
T21 construct: positional scanning library member
T21 peptide: Ac-PDRKAAVSQWQQ-NH2
Source text: as §1, §2

BC2T Q12V = molecular target: T22, BC2T Q12V; experiment: as above
T22 construct: positional scanning library member
T22 peptide: Ac-PDRKAAVSHWQV-NH2
Source text: as §1, §2

B1: BC2 nanobody (BC2-Nb) (VHH)
VHH: QVQLVESGGGLVQPGGSLTLSCTASGFTLDHYDIGWFRQAPGKEREGVSCINNSDDDTYYADSVKGRFTIFMDNAKDTVYLQMNSLKPEDTAIYYCAEARGCKRGRYEYDFWGQGTQVTVSS
notes: immobilised on agarose/sepharose beads in this assay; also called BC2 nanotrap (immobilised form); not shown: C-terminal 6xHis-tag added by pHEN6 vector
ratio (BC2T P1M): 0.2
ratio (BC2T R3V): 0.3
ratio (BC2T A6G): 0.7
ratio (BC2T A5G): 0.3
ratio (BC2T V7(I/L2)): 0.2
ratio (BC2T P1A): 0.1
ratio (BC2T K4(I/L2)): 0.2
ratio (BC2T D2M): 0.1
ratio (BC2T R3(I/L1)): 0.5
ratio (BC2T V7A): 0.4
ratio (BC2T R3A): 0.7
ratio (BC2T R3M): 0.7
ratio (BC2T P1G): 0.4
ratio (BC2T V7M): 0.3
ratio (BC2T A5M): 0.1
ratio (BC2T A6V): 0.3

B2: BC2 nanobody (VHH)
VHH: B1 VHH
notes: immobilised on beads in this assay; also called BC2-Nb; BC2 nanotrap (immobilised)
ratio (BC2T Q11T): 0.1
ratio (BC2T Q11(I/L1)): 0.1
ratio (BC2T Q12T): 0.1
ratio (BC2T Q12F): 0.2
ratio (BC2T H9Q): 0.2
ratio (BC2T Q12V): 0.1

B5: BC2-NbR106S (VHH)
VHH: B1 VHH with R106S
notes: headlock mutant of BC2-Nb; immobilised on beads in this assay
ratio (BC2T Q11T): 0.2
ratio (BC2T Q11(I/L1)): 0.2
ratio (BC2T Q12T): 0.3
ratio (BC2T Q12F): 0.4
ratio (BC2T H9Q): 0.4
ratio (BC2T Q12V): 0.2

Continued, values first:

ratio (BC2T P1M): 0.4
ratio (BC2T R3V): 0.5
ratio (BC2T A6G): 0.8
ratio (BC2T A5G): 0.4
ratio (BC2T V7(I/L2)): 0.2
ratio (BC2T P1A): 0.2
ratio (BC2T K4(I/L2)): 0.5
ratio (BC2T D2M): 0.1
ratio (BC2T R3(I/L1)): 0.9
ratio (BC2T V7A): 0.5
ratio (BC2T R3A): 1
ratio (BC2T R3M): 0.9
ratio (BC2T P1G): 0.5
ratio (BC2T V7M): 0.3
ratio (BC2T A5M): 0.1
ratio (BC2T A6V): 0.3
B3: BC2-NbR106E (VHH)
VHH: B1 VHH with R106E
notes: immobilised on beads in this assay; not shown: C-terminal 6xHis-tag added by pHEN6 vector

ratio (BC2T P1M): 0.5
ratio (BC2T R3V): 0.7
ratio (BC2T A6G): 0.9
ratio (BC2T A5G): 0.5
ratio (BC2T V7(I/L2)): 0.4
ratio (BC2T P1A): 0.3
ratio (BC2T K4(I/L2)): 0.6
ratio (BC2T D2M): 0.2
ratio (BC2T R3(I/L1)): 0.9
ratio (BC2T V7A): 0.7
ratio (BC2T R3A): 0.9
ratio (BC2T R3M): 0.9
ratio (BC2T P1G): 0.6
ratio (BC2T V7M): 0.5
ratio (BC2T A5M): 0.2
ratio (BC2T A6V): 0.6
B4: BC2-NbR106S (VHH)
VHH: B1 VHH with R106S
notes: as for B3
